This is an account of results in article PMC3471226 (The Journal of Cell Biology, 2012).

Experiment [1] addresses GST-talin1 A366/368 (mouse) (UniProt P26039). As to the kind of experiment: pull-down.
A further experiment addresses T1, GST-Tiam1-PDZ4 (mouse, UniProt Q60610 765-1234).
T1 sequence: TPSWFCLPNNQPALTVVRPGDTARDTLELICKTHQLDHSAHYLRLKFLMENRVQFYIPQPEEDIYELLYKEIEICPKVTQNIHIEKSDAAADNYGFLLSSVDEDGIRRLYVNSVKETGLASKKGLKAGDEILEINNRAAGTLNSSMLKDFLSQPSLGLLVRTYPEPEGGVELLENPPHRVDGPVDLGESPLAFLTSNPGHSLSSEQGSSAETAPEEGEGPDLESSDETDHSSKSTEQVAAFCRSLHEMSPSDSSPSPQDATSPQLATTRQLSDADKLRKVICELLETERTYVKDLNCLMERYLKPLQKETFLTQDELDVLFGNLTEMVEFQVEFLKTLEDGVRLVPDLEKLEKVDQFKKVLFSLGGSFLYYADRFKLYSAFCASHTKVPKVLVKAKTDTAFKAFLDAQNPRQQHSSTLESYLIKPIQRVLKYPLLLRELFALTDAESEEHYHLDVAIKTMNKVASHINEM
As to the kind of experiment: SPR. (In general: SPR reads the build-up and loss of mass on a sensor chip optically.)

Regarding “Tiam1-C1199-HA (from UniProt Q60610 1-1591) (domain or fragment)”, the decrease of association relative to wild type in experiment [1] is 90%.

B1: His-talin1 (1–433 aa) (domain or fragment, mouse, UniProt P26039 1-433, looked up)
chain: MVALSLKISIGNVVKTMQFEPSTMVYDACRMIRERIPEALAGPPNDFGLFLSDDDPKKGIWLEAGKALDYYMLRNGDTMEYRKKQRPLKIRMLDGTVKTIMVDDSKTVTDMLMTICARIGITNHDEYSLVRELMEEKKDEGTGTLRKDKTLLRDEKKMEKLKQKLHTDDELNWLDHGRTLREQGVEEHETLLLRRKFFYSDQNVDSRDPVQLNLLYVQARDDILNGSHPVSFDKACEFAGFQCQIQFGPHNEQKHKAGFLDLKDFLPKEYVKQKGERKIFQAHKNCGQMSEIEAKVRYVKLARSLKTYGVSFFLVKEKMKGKNKLVPRLLGITKECVMRVDEKTKEVIQEWSLTNIKRWAASPKSFTLDFGDYQDGYYSVQTTEGEQIAQLIAGYIDIILKKKKSKDHFGLEGDEESTMLEDSVSPKKSTVLQ
As for B1, in the experiment with GST-Tiam1-PDZ4, the Kd is roughly 430 nM.

As a reminder, the Kd is the free concentration of one partner at which half of the binding sites on the other are occupied at equilibrium, for simple one-to-one binding.
